Test results published in the DeepSol protein solubility set.

Assay: soluble on expression in E. coli; label from the status in PepcDB or PDB records

Q: With “MNPLRSIQHNITTPPISGGQPLDAVGPQAQQSHPKRISPSQLSQSAHQALERLSANAEHQRLASLVRNALQDGTFQFQSSNHTQVTYKASICLPADTDTVRTDHLINNELTVQARLNDQSEYDIVSAHLHGSSKAISFDVPSPPPAHGSASSVLSERTHLGMSSVLSQDAVDSSSLETPLVSSPDHSRPPSQPKPVHIGSVRRDSGSLVSDNPVVQALLSFVQADQAFPPQAASIAGVQLEMRSRRDIEQALEELKGAFTVEKAQLMSGGSSSERVDEDVNADIHIPLLLKAIERGAGAFGPGALIEIADGGQISAKAFLASCAPTITSNDDVLSEFINQKLKGDDDLQVRLGAQELLHVATKKEFQLGGLAGSIGVSSILGSAWELGASELLKNAIFGKNFSPSQYALQLAGIDSVPPFIIEAMDSFCVLVIIKGMKGELWSMKDLLPKALKAGAISSAMSFPNNVLQYAGFKSRVADLAANSITTEAAIFGAASGIPPEVKESEELMRAGLFQSMKDGVMAHPGEGMDTKETIERMTRHALDIAPGESTAVKSMGLAAIVGMIPLIASSKATGLVSEQILRIFRNAVFNPIEAIALNALALGGRVNVPGLFDSDNAKHARVAQTILARASQHMEAGDREISAEELHQMLAPRSEFLRHVGSAIVNGMNASFEAIPALVRKLGYGEAPLAERIPYQDLAVPDTSRQPAP” as the sequence, how does the “soluble on expression in E. coli” value read?
A: Its value is “not soluble”.

Q: With “MNPNFTTEHTWQGRHDPEDGQAGRRVHHIACPIQVGELANQEPGVALIGFECDAGVERNKGRTGAKHAPSLIKQALANLAWHHPIPIYDLGNIRCEGDELEQAQQECAQVIQQALPHARAIVLGGGHEIAWATFQGLAQHFLATGVKQPRIGIINFDAHFDLRTFESELAPVRPSSGTPFNQIHHFCQQQGWDFHYACLGVSRASNTPALFERADKLGVWYVEDKAFSPLSLKDHLTQLQHFIDDCDYLYLTIDLDVFPAASAPGVSAPAARGVSLEALAPYFDRILHYKNKLMIADIAEYNPSFDIDQHTARLAARLCWDIANAMAEQVQSIRHP” as the sequence, how does the “soluble on expression in E. coli” value read?
A: Its value is “soluble”.

Q: Which “soluble on expression in E. coli” value does the source give for “MNPQRDCKEFKVETRTITEVQSEPIYPTGRCGPVLARIPVVISQSKVHIDIESRVCFDHSVFDIYSHSRNIYLTQCKLLNMGNKRYGKIYLNGYVSENIAYAAYCMKGREYGNKKSTSADMLYKTLKVPFECVAKIEYCTSPVFKTSNGFIPVALPDKENSPEDSYFSGERLFCELDEASICESNVERKKLFSRINAGEDSFDTLTEYLVLSITFTLLQWQQVRIPGYFPNNPHSQI” here?
A: Its value is “not soluble”.

Q: Which “soluble on expression in E. coli” value does the source give for “MNQIDLNVTCRYAGVFHVEKNGRYSISRTEAADLCQAFNSTLPTMDQMKLALSKGFETCRYGFIEGNVVIPRIHPNAICAANHTGVYILVTSNTSHYDTYCFNASAPPEEDCTSVTDLPNSFDGPVTITIVNRDGTRYSKKGEYRTHQEDIDAS” here?
A: Its value is “soluble”.

Q: Which “soluble on expression in E. coli” value does the source give for “MNQLQAEINAANAVFPVSDSTKIPKVSQKLFGLLGDGFFPQLHPKGLKIADNIAALFDQYNLKSIALKNFDLNLERKNDIVIQGKVCYSFSIK” here?
A: The value was “not soluble”.

Q: Which “soluble on expression in E. coli” value does the source give for “MNQNQNKKTKIVALSMMNSQTSGNPSRGTTKFESYTFDYWQYIDTLVYWGGSSGEGIIVTPSADVIDEAHSNGVPVLGTIFLPPKEYGGKVDWVKTMLKKDEQGQYPFASQMVKVAKTYGFEGWFINEETQGLNADDAANMKALIQQVKKEDSSLQIMWYDAMTKDGKVDWQNQLNDQNATFVQDKAADAMFLNFWWTQNNLADQKLLEKSNLYAKNHNIDPYNIYAGIDVQAKDVQTPVKWNLLEKGNQATQTSIGLYAASATYTNASNWDDFQNRESAFWVNQKADPRQVDHSVNESWTGLSKYVLEKSAISGNEFNTNFNLGNGYNYFKAGQKISEMDWNDRSLAGILPSYRWIIDNEGKNKISPSFDFANAYNGGNSLKFMAEHLDAGKSSNITLFASDLKIAMGAKFSVSMRSDQALKVSAILELANGQKVSIAGDKSLTENWSKLEHHHHHH” here?
A: The value was “soluble”.

Q: For “MNQQEFQLREITYQDIKDLLAIEREVYAGELPWTMSAFMAELGSKAPHLYLLAAINGKTVGFIGCRIQGTDAHITNVAVHTAYQGLGLGRSLIEETRIFAKKNRCETLSLEVRMSNVKAQRLYRKIGFVSQTVKKGYYDENNEDALEMIIDLKEE”, which “soluble on expression in E. coli” value is on record?
A: Its value is “not soluble”.

Q: With “MNRFFILSGCSGGGKSTLLAELARRGFATVEEPGRRIVIEETRNGGTALPWIDMQAFARRAIAMALEDRRVTPKEGLVFFDRGLIDAASALHHISGDRFVNTLRDTHRYNSLVFLTPPWPEIYQSDDERKHGFDAAVEEYERLVRDYEGLGYDIVVLPKSAVAERADLILTRIGLEHHHHHH” as the sequence, how does the “soluble on expression in E. coli” value read?
A: Its value is “not soluble”.

Q: Which “soluble on expression in E. coli” value does the source give for “MNRIAFDAKRITSNATGLGNYSRFVVEALAAFHSEHRYYLCSPGKGNPALYSALQQREGIEWLLPEGRRMGGTFWRNFGVVPRLQKEGIDLFHGLSHELPLGIYGKGIATVVTIHDLIFIRYPHYYKPVDRLLYRLKYGHAARCADRVIAISEQTKRDVMEFFHVPADRIDVVYQGCSPAFGQATEEDESRARERYALPERYLLYVGSIETRKNLRLAVEALAHCRDRHIRLVAVGKRTPYCAEVQQCAERSGVADRLVMLHDVPFAFLPGIYRGAEVFVYPSRFEGFGIPIVEALASGVPVVAATGSCLEEAGGPSSLYTDPDDAEMMASMLDSILSDSSLREKMIADGRTYIERFSPEAVARSLMHVYDKVL” here?
A: The value was “not soluble”.

Q: With “MNRKKLAAYGQEFEDDDEEGSSVSKKPTQIHEEIATDEKGKRRFHGAFTGGFSAGYWNTVGSKQGWVPQVFSSSRNERGEQIKQRAEDFMDAEDLGEYGIGNRSIKQTAAFGEGAGQKRKMAWERDTTSISTITQMFEDVVKPVSNSIGVRMLRSMGWREGRGIGLANVKQKQKRGGESSEAQFDREQASKVAPAYEFSNEDALVKQLTPLTGTHGIGYQGLRKTTVLNESYGRTTLALKSGKKNSKGIKGQAFGVGAFEEEDESVYSNYDLSQFDFSLDVAGASEESNLKTQKLVTAFELQPKRLNPRKFYAPPRVPPNFRGDHRPIPMDISKLPQMMKNDVKHMNAEQRAKFLGEDRVNALEIGGKSSKKPTERRSRWDIKANEVEKRDNERGGGEAEEDRDRRQRNRIEFPDEPMRQARFKEFLHYIRRGLPYPQPTDLTVWEWEWEKKEFESKLTSDERGMLPEVQSRAQPLAKTAIAAPIHEMMASKFVKEAGGDLKVGTKDEDKLAAVKMEMFGEKTRQSFDWYPDNLLAKRFNVPHPYPGSDTVGVPALQKTDWKRKDRLADIGGVSATLGLPNTANEIEMRERLLKSRAQRGAEEKKRNQSDDDDEKEYDDKDSDEEEENEAEPNNQKVDKAPKSFFDFIFGDGDGADSDESNSEDEEAEEKERQEILKKREEDLKRRREIVEKKEEENRKRVEKELKELENRDLLRVSKQQEDDDIQIIDETSASSFGPALPPSSKPVLSKTEVLKLLEKNMKKKKKDKKEKEKKKKSKKSKKSKKEKKTKRKHSSSSADDSGDNSDGWEEKK” as the sequence, how does the “soluble on expression in E. coli” value read?
A: The value was “not soluble”.

Q: For “MNRMSLAALLSCLPLVAWADNPVKLDTPVSGWRAGDGSAANYRQVVNYPASSVNVAADQATTARIRGAIESQPKDRPATLVVNGVSMPLKVDADGSFDRPFAFPSGSNSVEVRNAAGQSRRVQFYHGGGGGEVPAKLRVLLSWDSDNTDLDLHLVTPDGDHVWYGNRSLANGATLDVDVTTGYGPEIIATPTPQKGPYLVYVNYFGGGYGSSEDGAEQAAQDLTTARITLVTEEGTPNEKQETFLVPMRKPGELTLVKRFSYP”, which “soluble on expression in E. coli” value is on record?
A: Its value is “not soluble”.

Q: For “MNRQELITEALKARDMAYAPYSKFQVGAALLTKDGKVYRGCNIENAAYSMCNCAERTALFKAVSEGDTEFQMLAVAADTPGPVSPCGACRQVISELCTKDVIVVLTNLQGQIKEMTVEELLPGAFSSEDLHDERKL”, which “soluble on expression in E. coli” value is on record?
A: Its value is “soluble”.

Q: With “MNRSIDSIIAKKVSHDVGILIFQYLNDIEPLIQQSLTAAKLKDFYGLKGKYSKGRFVCPFHHGADNPTSLSMNDNKRCFHCNACGKSGTYLEFIMYMQNISGRNSYNDAKIFAANHFTKLNLGFNSIADFEQKLKDKILERYRKTNSLRYTDYYDIWLLPERYFSSKEQSQVRQYQEEQQTKPSLEVSLSNSTNKPGFILESLDLEMTIRHLKAQNIIVNGITDYDEAVQVAKNSKLIKDFTKNADKLNSVDKLTDYMSKKYNIDIDTALKYGLIFFDKSSQHQLYYSDFFMLNNRVLFPVRDHETGIIVGYQCRRTDLSAPRHYKYLNITDYQDNLITNENGTTYRDFVPFKVGNFLFNLYELKGKCINTLWITEGIADAIKLSSMGYDAVSLGQANLTDYQIYLIDKYFGKDVTLNLFFDNDDNKIGQNKSIAAAYRLWQFGFRNIRIINTFKEMGKDITDCSVKLHDDDMLRLFINHWEKQAYSFAPASNEDLSALLKTGLYSESEILFIDPRDVERIISFGEMLNKYLDFKNMTYQQLKLLKKLCSFKEDEIKILLSLSTKDFLDVQNTNEQSCHKEQL” as the sequence, how does the “soluble on expression in E. coli” value read?
A: Its value is “not soluble”.

Q: With “MNSCDFRVFLQEFGTTVHLSLPGSVSEKERLLLKLLMQGMSVTEISQYRNRSAKTISHQKKQLFEKLGIQSDITFWRDIFFQYNPEIISATGSNSHRYINDNHYHHIVTPEAISLALENHEFKPWIQPVFCAQTGVLTGCEVLVRWEHPQTGIIPPDQFIPLAESSGLIVIMTRQLMKQTADILMPVKHLLPDNFHIGINVSAGCFLAAGFEKECLNLVNKLGNDKIKLVLELTERNPIPVTPEARAIFDSLHQHNITFALDDFGTGYATYRYLQAFPVDFIKIDKSFVQMASVDEISGHIVDNIVELARKPGLSIVAEGVETQEQADLMIGKGVHFLQGYLYSPPVPGNKFISEWVMKAGG” as the sequence, how does the “soluble on expression in E. coli” value read?
A: Its value is “soluble”.

Q: Which “soluble on expression in E. coli” value does the source give for “MNSFYSQEELKKIGFLSVGKNVLISKKASIYNPGVISVGNNVRIDDFCILSGKVTIGSYSHIAAYTALYGGEVGIEMYDFANISSRTIVYAAIDDFSGNALMGPTIPNQYKNVKTGKVILKKHVIIGAHSIIFPNVVIGEGVAVGAMSMVKESLDDWYIYVGVPVRKIKA” here?
A: The value was “soluble”.

Q: For “MNSNKELMQRRSQAIPRGVGQIHPIFADRAENCRVWDVEGREYLDFAGGIAVLNTGHLHPKVVAAVEAQLKKLSHTCFQVLAYEPYLELCEIMNQKVPGDFAKKTLLVTTGSEAVENAVKIARAATKRSGTIAFSGAYHGRTHYTLALTGKVNPYSAGMGLMPGHVYRALYPCPLHGISEDDAIASIHRIFKNDAAPEDIAAIVIEPVQGEGGFYASSPAFMQRLRALCDEHGIMLIADEAQSGAGRTGTLFAMEQMGVAPDLTTFAKSIAGGFPLAGVTGRAEVMDAVAPGGLGGTYAGNPIACVAALEVLKVFEQENLLQKANDLGQKLKDGLLAIAEKHPEIGDVRGLGAMIAIELFEDGDHNKPDAKLTAEIVARARDKGLILLSCGPYYNVLRILVPLTIEDAQIRQGLEIISQCFDEAKQ”, which “soluble on expression in E. coli” value is on record?
A: The value was “soluble”.

Q: For “MNSPPINEFIQAVVYDHSIATGLKACKTDQDIVDYAASKGFIFSSSEWQLYLALDRKTLSDSELAKILVVPVEHWSWAFRKVALWRAMLMDGV”, which “soluble on expression in E. coli” value is on record?
A: The value was “not soluble”.

Q: For “MNSRQQTILQMVIDQGQVSVTDLAKATGVSEVTIRQDLNTLEKLSYLRRAHGFAVSLDSDDVETRMMSNYTLKRELAEFAASLVQPGETIFIENGSSNALLARTLGEQKKNVTIITVSSYIAHLLKDAPCEVILLGGVYQKKSESMVGPLTRQCIQQVHFSKAFIGIDGWQPETGFTGRDMMRTDVVNAVLEKECEAIVLTDSSKFGAVHSYSIGPVERFNRVITDSKIRASDLMHLEHSKLTIHVVDI”, which “soluble on expression in E. coli” value is on record?
A: The value was “not soluble”.

Q: With “MNTDELEHRRFDDLFSLVADPGFLLVAWDLVRGNKGASAAGVDGSTASSIALWVGVEKFLDMLRSQIKDRSFQPMPVRERMIPKAGGKLRRLGIATITDRVVQASLKLARFGEAAPGKRTGRKTGTAPRADFTPAIGCAFRYSPVLEHHHHHH” as the sequence, how does the “soluble on expression in E. coli” value read?
A: The value was “not soluble”.

Q: With “MNTDHERWRTEYAGGTAVAYDDKVVLQGDSARLAGLLQDGGGRAHIYFDGASRGNPGPAAIGWVIVTDDGIVAEGSERIGRATNNQAEYEALIEALAAAADYAFDEAVVKGDSQLIVKQVRGEWDTNDPTLREKRVRVRKLLEEFSEWSLDHVPREINDRADDLANEALDGLEHHHHHH” as the sequence, how does the “soluble on expression in E. coli” value read?
A: The value was “soluble”.
